Results published in doi:10.1101/2021.05.09.442808 (bioRxiv, 2021).

Target: SARS-CoV-2 S 2P prefusion-stabilized ectodomain trimer (SARS-CoV-2 (Wuhan-Hu-1), stabilised)
Test: SPR

B1: S2P6 Fab fragment (Fab, V domains shown)
VH: EVQLVQSGAEVKKPGASVKVSCKASGYTFTSQYMHWVRQAPGQGLEWIGIINPSGVHTSYAQKFQGRVTLTRDTSTSTLYMELSSLRSEDTAVYYCARGSPKGAFDYWGQGTLVTVSS
VL: not shown
Kd: 7 nM
